IntAct's records for PubMed 15895076

B1: Dynamin-2 (Rattus norvegicus (Rat)), P39052 (parent)
chain: MGNRGMEELIPLVNKLQDAFSSIGQSCHLDLPQIAVVGGQSAGKSSVLENFVGRDFLPRGSGIVTRRPLILQLIFSKTEYAEFLHCKSKKFTDFDEVRQEIEAETDRVTGTNKGISPVPINLRVYSPHVLNLTLIDLPGITKVPVGDQPPDIEYQIKDMILQFISRESSLILAVTPANMDLANSDALKLAKEVDPQGLRTIGVITKLDLMDEGTDARDVLENKLLPLRRGYIGVVNRSQKDIEGRKDIRAALAAERKFFLSHPAYRHMADRMGTPHLQKTLNQQLTNHIRESLPTLRSKLQSQLLSLEKEVEEYKNFRPDDPTRKTKALLQMVQQFGVDFEKRIEGSGDQVDTLELSGGARINRIFHERFPFELVKMEFDEKDLRREISYAIKNIHGVRTGLFTPDLAFEAIVKKQVVKLKEPCLKCVDLVIQELISTVRQCTSKLSSYPRLREETERIVTTYIREREGRTKDQILLLIDIEQSYINTNHEDFIGFANAQQRSTQLNKKRAIPNQGEILVIRRGWLTINNISLMKGGSKEYWFVLTAESLSWYKDEEEKEKKYMLPLDNLKIRDVEKGFMSNKHVFAIFNTEQRNVYKDLRQIELACDSQEDVDSWKASFLRAGVYPEKDQAENEDGAQENTFSMDPQLERQVETIRNLVDSYVAIINKSIRDLMPKTIMHLMINNTKAFIHHELLAYLYSSADQSSLMEESAEQAQRRDDMLRMYHALKEALNIIGDISTSTVSTPVPPPVDDTWLQNTSSHSPTPQRRPVSSVHPPGRPPAVRGPTPGPPLIPMPVGATSSFSAPPIPSRPGPQNVFANNDPFSAPPQIPSRPARIPPGIPPGVPSRRAPAAPSRPTIIRPAEPSLLD
B2: Focal adhesion kinase 1 (Homo sapiens), Q05397 (parent)
chain: MAAAYLDPNLNHTPNSSTKTHLGTGMERSPGAMERVLKVFHYFESNSEPTTWASIIRHGDATDVRGIIQKIVDSHKVKHVACYGFRLSHLRSEEVHWLHVDMGVSSVREKYELAHPPEEWKYELRIRYLPKGFLNQFTEDKPTLNFFYQQVKSDYMLEIADQVDQEIALKLGCLEIRRSYWEMRGNALEKKSNYEVLEKDVGLKRFFPKSLLDSVKAKTLRKLIQQTFRQFANLNREESILKFFEILSPVYRFDKECFKCALGSSWIISVELAIGPEEGISYLTDKGCNPTHLADFTQVQTIQYSNSEDKDRKGMLQLKIAGAPEPLTVTAPSLTIAENMADLIDGYCRLVNGTSQSFIIRPQKEGERALPSIPKLANSEKQGMRTHAVSVSETDDYAEIIDEEDTYTMPSTRDYEIQRERIELGRCIGEGQFGDVHQGIYMSPENPALAVAIKTCKNCTSDSVREKFLQEALTMRQFDHPHIVKLIGVITENPVWIIMELCTLGELRSFLQVRKYSLDLASLILYAYQLSTALAYLESKRFVHRDIAARNVLVSSNDCVKLGDFGLSRYMEDSTYYKASKGKLPIKWMAPESINFRRFTSASDVWMFGVCMWEILMHGVKPFQGVKNNDVIGRIENGERLPMPPNCPPTLYSLMTKCWAYDPSRRPRFTELKAQLSTILEEEKAQQEERMRMESRRQATVSWDSGGSDEAPPKPSRPGYPSPRSSEGFYPSPQHMVQTNHYQVSGYPGSHGITAMAGSIYPGQASLLDQTDSWNHRPQEIAMWQPNVEDSTVLDLRGIGQVLPTHLMEERLIRQQQEMEEDQRWLEKEERFLKPDVRLSRGSIDREDGSLQGPIGNQHIYQPVGKPDPAAPPKKPPRPGAPGHLGSLASLSSPADSYNEGVKLQPQEISPPPTANLDRSNDKVYENVTGLVKAVIEMSSKIQPAPPEEYVPMVKEVGLALRTLLATVDETIPLLPASTHREIEMAQKLLNSDLGELINKMKLAQQYVMTSLQQEYKKQMLTAAHALAVDAKNLLDVIDQARLKMLGQTRPH
partner: B1 chain

Variants of: B1
Details: with fak1_mouse Ptk2, P34152

Row | effect of a mutation on the interaction | Variant
1 | increasing interaction | K44E

Variants of: B2
Details: with dyn2_rat Dnm2, P39052

Row | effect of a mutation on the interaction | Variant
2 | disrupting interaction | Y925F
